Reference: US20120100582A1 (DSM IP ASSETS B V, published 2012)

Target: the molecule itself
Assay: method not named, self-association

B1: APLE L43D variant (enzyme)
chain: GQPASPPVVDTAQGRVLGKYVSLEGLAQPVAVFLGVPFAKPPDGSLRFAPPQPAEPWSFVKNTTSYPPMCCQEPIGGQMLSDLFTNRKERLIPEFSEDCLYLNIYTPADLTKRGRLPVMVWIHGGGLVVGGASTYDGLALAAHENVVVVAIQYRLGIWGFFSTGDEHSRGNWGHLDQVAALHWVQENIANFGGDPGSVTIFGESAGGESVSVLVLSPLAKNLFHRAISESGVAFTAGLVRKDMKAAAKQIAVLAGCKTTTSAVFVHCLRQKSEDELLDLTLKMKFFALDLHGDPRESHPFLTTVVDGVLLPKMPEEILAEKDFNTVPYIVGINKQEFGWLLPTMMGFPLSEGKLDQKTATSLLWKSYPIANIPEELTPVATDKYLGGTDDPVKKKDLFLDLMGDVVFGVPSVTVARQHRDAGAPTYMYEFQYRPSFSSDKKPKTVIGDHGDEIFSVFGFPLLKGDAPEEEVSLSKTVMKFWANFARSGNPNGEGLPHWPMYDQEEGYLQIGVNTQAAKRLKGEEVAFWNDLLSKEAAKKPPKIKHAEL
- binding result: no binding
